Reference: ChEMBL document CHEMBL6074635, “Replacement of the essential nitro group by electrophilic warheads towards nitro-free antimycobacterial benzothiazinones” (Eur J Med Chem, 2024)

How the values were obtained:
[1] = substrate: CC(C)=CCC/C(C)=C/CC/C(C)=C/CC/C(C)=C/COP(=O)(O)OC1O[C@H](CO)[C@@H](O)[C@H]1O; experiment: (§1) Substrate activity at recombinant Mycobacterium tuberculosis DprE1 extracted from Escherichia coli BL21(DE3) assessed as Km incubated for 60 mins by resazurin dye based fluorescence plate reader analysis
[2] = substrate: CC(C)=CCC/C(C)=C/CC/C(C)=C/COP(=O)(O)O[C@@H]1O[C@H](CO)[C@@H](O)[C@H]1O; experiment: as §1

B1: Decaprenylphosphoryl-beta-D-ribose oxidase (Mycobacterium tuberculosis (strain ATCC 25618 / H37Rv)), P9WJF1 (protein)
chain: MLSVGATTTATRLTGWGRTAPSVANVLRTPDAEMIVKAVARVAESGGGRGAIARGLGRSYGDNAQNGGGLVIDMTPLNTIHSIDADTKLVDIDAGVNLDQLMKAALPFGLWVPVLPGTRQVTVGGAIACDIHGKNHHSAGSFGNHVRSMDLLTADGEIRHLTPTGEDAELFWATVGGNGLTGIIMRATIEMTPTSTAYFIADGDVTASLDETIALHSDGSEARYTYSSAWFDAISAPPKLGRAAVSRGRLATVEQLPAKLRSEPLKFDAPQLLTLPDVFPNGLANKYTFGPIGELWYRKSGTYRGKVQNLTQFYHPLDMFGEWNRAYGPAGFLQYQFVIPTEAVDEFKKIIGVIQASGHYSFLNVFKLFGPRNQAPLSFPIPGWNICVDFPIKDGLGKFVSELDRRVLEFGGRLYTAKDSRTTAETFHAMYPRVDEWISVRRKVDPLRVFASDMARRLELL
- Km [1]: 33 µM
- Km [2]: 740 µM
